The text below walks through data of publication PMC13189363.

The target in assay [1] is DUF4297 from Bacillus ap. HMH5848 (Bacillus ap. HMH5848). Briefly: cryo-EM structure.
The target is the same in assay [2]. Briefly: mass photometry.
For assay [3], the target named is HerA from Bacillus ap. HMH5848 (Bacillus ap. HMH5848). Nature of the assay: cryo-EM structure.

Values joined by “and” are separate entries in the source; they are usually repeats but may differ in a detail not shown here. Equal entries are not always repeated.

As to “DUF4297 from Bacillus ap. HMH5848 (enzyme)”, the stoichiometry N – broadly, the number of molecules, sites or subunits per partner or assembly – in assay [1] is 12 and 4 and 6; in assay [2], 6 and 12 and 14. Turning to HerA from Bacillus ap. HMH5848 (enzyme), the stoichiometry N in assay [3] worked out at 6.
